The target in assay [1] is T1, CD86 on cells (WIL2-S human B-lymphoblastoid cells; HuCD86-2A2 CHO cells expressing CD86) (human, UniProt P42081 24-329).
T1 construct: whole, on cells; also called cell surface CD86
T1 sequence (looked up): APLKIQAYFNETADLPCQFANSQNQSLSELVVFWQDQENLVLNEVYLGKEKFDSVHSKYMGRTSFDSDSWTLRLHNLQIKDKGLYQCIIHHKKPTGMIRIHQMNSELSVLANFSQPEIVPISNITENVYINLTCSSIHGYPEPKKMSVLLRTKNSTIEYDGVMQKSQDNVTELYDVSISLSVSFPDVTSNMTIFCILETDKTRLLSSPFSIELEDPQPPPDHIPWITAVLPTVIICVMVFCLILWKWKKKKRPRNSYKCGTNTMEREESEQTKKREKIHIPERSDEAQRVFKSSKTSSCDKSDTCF
As to the kind of experiment: flow cytometry, supernatants of transfected HEK293 cells on HuCD86-2A2 cells. How it is done:
Briefly, WIL2-S or HuCD86-2A2 cells were incubated with test molecules containing a CD86 antagonist at concentrations ranging from saturation to background levels. […] After the incubation, cells were washed and a fluorophore (R-phycoerythrin) tagged F(Ab′)₂ antibody specific for the Fc portion of the xceptor molecule, IL10R-Ig fusion protein, or anti-IL10 antibody. The tagged cells were then passed through a flow cytometer and data was analyzed by plotting median fluorescence intensity of each sample.
In another experiment, different versions of humanized FUN1 SMIPs were tested for CD86 binding. Supernatants of HEK293 cells transiently transfected with the six different versions of humanized FUN1 SMIPs were examined for CD86 binding using HuCD86-2A2 cells.

For assay [2], the target named is T2, Murine CD86-mIgG (R&D Systems, Inc) (murine, UniProt P42082 24-244, limits assumed).
T2 construct: also called muCD86
T2 sequence (looked up): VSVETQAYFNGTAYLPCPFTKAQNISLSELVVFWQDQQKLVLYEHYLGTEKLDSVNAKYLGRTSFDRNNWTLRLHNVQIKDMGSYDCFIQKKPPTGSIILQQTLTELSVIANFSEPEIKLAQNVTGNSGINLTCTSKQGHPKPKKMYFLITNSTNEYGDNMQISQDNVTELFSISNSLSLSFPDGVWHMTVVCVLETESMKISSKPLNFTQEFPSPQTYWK
As to the kind of experiment: SPR (BIAcore T100), murine CD86-mIgG immobilized on CM5; bivalent analyte model, second site. On the procedure: (§1) SPR measurements were performed on a BIAcore™ T100 SPR (Pharmacia Biotech AB, Uppsala) using HBS-EP+ (GE Healthcare) as a running buffer. Murine CD86-mIgG (25 μg/mL in 10 mM sodium acetate, pH 4.0, R&D Systems, Inc) was directly immobilized onto a CM5 chip using standard amine coupling chemistry (Biacore Amine Coupling Kit, GE Healthcare), with final immobilization levels of 150, 493, and 746 Ru. CTLA4-containing constructs were injected for 150 seconds, at a flow rate of 10 μl/min, in a series of concentrations from 4 nM to 8 μM. Dissociation was monitored for 600 seconds (CTLA4 constructs) or 1200 seconds (GL1 constructs), and the surface was regenerated by injecting 10 mM glycine, pH 1.7, for 60 seconds. […] Data were analyzed using BiaEvaluation for the T100 software (version 2.0.1, GE Healthcare).

The target of assay [3] is T2, Murine CD86-mIgG (R&D Systems, Inc). Description: SPR (BIAcore T100), murine CD86-mIgG immobilized on CM5; bivalent analyte model, first site. How it is done: as §1
In general terms: Surface plasmon resonance follows binding to a sensor surface in real time, without labels.

The target is the same in assay [4]. Description: SPR (BIAcore T100), murine CD86-mIgG immobilized on CM5; steady-state equilibrium fit. On the procedure: as §1

5 molecules from patent publication US20120100139A1 (APTEVO RESEARCH AND DEVELOPMENT, published 2012) can be followed below.

B1: FUN1-31 humanized FUN1 SMIP (Fc fusion)
chain: QVQLVESGGGLVKPGGSLRLSCAASGFTFSDYNMNWIRQAPGKGLEWVSNIDPYYGGTSYNQKFKGRFTISRDNAKNSLYLQMNSLRAEDTAVYYCARWDYRYDDGRAYYVMDFWGQGTTVTVSSGGGGSGGGGSGGGGSGGGGSDIVMTQSPDSLAVSLGERATINCKSSQSVLYSSNQKNYLAWYQQKPGQPPKLLIYWASTRESGVPDRFSGSGSGTDFTLTISSLQAEDVAVYYCHQYLYSWTFGQGTKLEIKRLEPKSSDKTHTCPPCPAPEAAGAPSVFLFPPKPKDTLMISRTPEVTCVVVDVSHEDPEVKFNWYVDGVEVHNAKTKPREEQYNSTYRVVSVLTVLHQDWLNGKAYACAVSNKALPAPIEKTISKAKGQPREPQVYTLPPSRDELTKNQVSLTCLVKGFYPSDIAVEWESNGQPENNYKTTPPVLDSDGSFFLYSKLTVDKSRWQQGNVFSCSVMHEALHNHYTQKSLSLSPG
On to B1, for which the binding result in assay [1] was “no binding”.

B2: FUN1-32 humanized FUN1 SMIP (Fc fusion)
chain: QVQLVESGGGLVKPGGSLRLSCAASGFTFSDYNMNWIRQAPGKGLEWVSNIDPYYGGTSYNQKFKGRFTISRDNAKNSLYLQMNSLRAEDTAVYYCARWDYRYDDGRAYYVMDFWGQGTTVTVSSGGGGSGGGGSGGGGSGGGGSDIQMTQSPSSLSASVGDRVTITCKSSQSVLYSSNQKNYLAWYQQKPGKVPKLLIYWASTRESGVPSRFSGSGSGTDFTLTISSLQPEDVATYYCHQYLYSWTFGQGTKLEIKRLEPKSSDKTHTCPPCPAPEAAGAPSVFLFPPKPKDTLMISRTPEVTCVVVDVSHEDPEVKFNWYVDGVEVHNAKTKPREEQYNSTYRVVSVLTVLHQDWLNGKAYACAVSNKALPAPIEKTISKAKGQPREPQVYTLPPSRDELTKNQVSLTCLVKGFYPSDIAVEWESNGQPENNYKTTPPVLDSDGSFFLYSKLTVDKSRWQQGNVFSCSVMHEALHNHYTQKSLSLSPG
notes: SMIP: scFv-hinge-Fc single chain
On to B2, for which the binding result in assay [1] is “no binding”.

B3: IL10::GL1 xceptor (Fc fusion)
chain: SPGQGTQSENSCTHFPGNLPNMLRDLRDAFSRVKTFFQMKDQLDNLLLKESLLEDFKGYLGCQALSEMIQFYLEEVMPQAENQDPDIKAHVNSLGENLKTLRLRLRRCHRFLPCENKSKAVEQVKNAFNKLQEKGIYKAMSEFDIFINYIEAYITMKIRNLEPKSSDKTHTCPPCPAPEAAGAPSVFLFPPKPKDTLMISRTPEVTCVVVDVSHEDPEVKFNWYVDGVEVHNAKTKPREEQYNSTYRVVSVLTVLHQDWLNGKAYACAVSNKALPAPIEKTISKAKGQPREPQVYTLPPSRDELTKNQVSLTCLVKGFYPSDIAVEWESNGQPENNYKTTPPVLDSDGSFFLYSKLTVDKSRWQQGNVFSCSVMHEALHNHYTQKSLSLSPGNSLFNQEVQIPLTESYSPNSEVQLVESAGGLVQPGRSLKLSCAASGFTFSDYYMAWVRQAPTKGLEWVATISHDGSSTYYRDSVKGRFTISRDNAKTILYLQMDSLRSEDTATYFCARQNIMDYWGQGVMVTVSSGGGGSGGGGSGGGGSGGGGSDIVMTQTPSSQAVSAGEKVTMSCKSSQSLLYSRDQSNYLAWYQQKPGQSPKLLIYLASTRESGVPDRFIGSGSGTDFTLTISSVQAEDLADYYCQQHYNYPLTFGSGTKLEIK
On to B3, for which, in assay [2], the “Second Site ka” value was 0.0271 s⁻¹ and the “Second Site kd” value was found to be 0.088 s⁻¹. In addition, in assay [3], the koff – broadly, the rate constant with which the complex falls apart – was 4.4e-05 s⁻¹ and the kon – broadly, the rate constant with which the complex forms – was found to be 67300 M⁻¹ s⁻¹. Further, the affinity in assay [4], expressed as Kd, was 95.1 nM.

B4: GL1::IL10 xceptor (Fc fusion)
chain: EVQLVESAGGLVQPGRSLKLSCAASGFTFSDYYMAWVRQAPTKGLEWVATISHDGSSTYYRDSVKGRFTISRDNAKTILYLQMDSLRSEDTATYFCARQNIMDYWGQGVMVTVSSGGGGSGGGGSGGGGSGGGGSDIVMTQTPSSQAVSAGEKVTMSCKSSQSLLYSRDQSNYLAWYQQKPGQSPKLLIYLASTRESGVPDRFIGSGSGTDFTLTISSVQAEDLADYYCQQHYNYPLTFGSGTKLEIKLEPKSSDKTHTCPPCPAPEAAGAPSVFLFPPKPKDTLMISRTPEVTCVVVDVSHEDPEVKFNWYVDGVEVHNAKTKPREEQYNSTYRVVSVLTVLHQDWLNGKAYACAVSNKALPAPIEKTISKAKGQPREPQVYTLPPSRDELTKNQVSLTCLVKGFYPSDIAVEWESNGQPENNYKTTPPVLDSDGSFFLYSKLTVDKSRWQQGNVFSCSVMHEALHNHYTQKSLSLSPGNSLFNQEVQIPLTESYSPNSSPGQGTQSENSCTHFPGNLPNMLRDLRDAFSRVKTFFQMKDQLDNLLLKESLLEDFKGYLGCQALSEMIQFYLEEVMPQAENQDPDIKAHVNSLGENLKTLRLRLRRCHRFLPCENKSKAVEQVKNAFNKLQEKGIYKAMSEFDIFINYIEAYMTMKIRN
For the molecule B4, in assay [2], the “Second Site ka” value amounted to 0.00943 s⁻¹ and the “Second Site kd” value worked out at 0.0182 s⁻¹. Besides, in assay [3], the koff came out at 0.00019 s⁻¹ and the kon came out at 219000 M⁻¹ s⁻¹. In addition, the affinity in assay [4], expressed as Kd, was 86.4 nM.

B5: FUN1-12 humanized FUN1 SMIP (Fc fusion)
chain: EVQLVQSGAEVKKPGATVKISCKVSGYTFTDYNMNWVQQAPGKGLEWMGNIDPYYGGTSYNQKFKGRVTITADTSTDTAYMELSSLRSEDTAVYYCATWDYRYDDGRAYYVMDFWGQGTTVTVSSGGGGSGGGGSGGGGSGGGGSDIQMTQSPSSLSASVGDRVTITCKSSQSVLYSSNQKNYLAWYQQKPGKVPKLLIYWASTRESGVPSRFSGSGSGTDFTLTISSLQPEDVATYYCHQYLYSWTFGQGTKLEIKRLEPKSSDKTHTCPPCPAPEAAGAPSVFLFPPKPKDTLMISRTPEVTCVVVDVSHEDPEVKFNWYVDGVEVHNAKTKPREEQYNSTYRVVSVLTVLHQDWLNGKAYACAVSNKALPAPIEKTISKAKGQPREPQVYTLPPSRDELTKNQVSLTCLVKGFYPSDIAVEWESNGQPENNYKTTPPVLDSDGSFFLYSKLTVDKSRWQQGNVFSCSVMHEALHNHYTQKSLSLSPG
Regarding B5, in assay [1], the binding result is recorded as “no binding”.
